Source: article PMC11098746 (2024)
No end group written: not given here.

Columns and labels:
Test in all cases: AVEXIS screen signal:noise (double-corrected)
[1] = target: T1, ADP156
T1 chain: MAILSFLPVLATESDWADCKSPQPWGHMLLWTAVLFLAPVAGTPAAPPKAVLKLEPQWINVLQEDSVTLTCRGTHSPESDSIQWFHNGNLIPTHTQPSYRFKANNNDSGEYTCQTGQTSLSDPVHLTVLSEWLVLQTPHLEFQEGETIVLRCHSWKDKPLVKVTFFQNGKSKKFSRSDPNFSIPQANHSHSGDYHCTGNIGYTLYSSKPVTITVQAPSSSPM

[2] = target: ADP369
[3] = target: T2, ADP103
T2 chain: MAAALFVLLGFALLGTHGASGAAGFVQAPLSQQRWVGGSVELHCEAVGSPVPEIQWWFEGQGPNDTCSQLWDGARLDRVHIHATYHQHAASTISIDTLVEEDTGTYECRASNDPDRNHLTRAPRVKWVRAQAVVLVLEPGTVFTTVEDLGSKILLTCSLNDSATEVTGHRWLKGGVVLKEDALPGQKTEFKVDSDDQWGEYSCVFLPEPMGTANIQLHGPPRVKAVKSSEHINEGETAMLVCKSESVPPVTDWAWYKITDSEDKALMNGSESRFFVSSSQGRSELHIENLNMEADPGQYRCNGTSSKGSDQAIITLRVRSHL

[4] = target: T3, ADP353
T3 chain: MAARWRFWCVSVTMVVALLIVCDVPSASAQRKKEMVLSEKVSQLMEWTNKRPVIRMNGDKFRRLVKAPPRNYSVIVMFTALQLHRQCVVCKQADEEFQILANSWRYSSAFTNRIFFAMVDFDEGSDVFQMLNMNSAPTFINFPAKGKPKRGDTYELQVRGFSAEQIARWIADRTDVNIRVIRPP

[5] = target: T4, ADP267
T4 chain: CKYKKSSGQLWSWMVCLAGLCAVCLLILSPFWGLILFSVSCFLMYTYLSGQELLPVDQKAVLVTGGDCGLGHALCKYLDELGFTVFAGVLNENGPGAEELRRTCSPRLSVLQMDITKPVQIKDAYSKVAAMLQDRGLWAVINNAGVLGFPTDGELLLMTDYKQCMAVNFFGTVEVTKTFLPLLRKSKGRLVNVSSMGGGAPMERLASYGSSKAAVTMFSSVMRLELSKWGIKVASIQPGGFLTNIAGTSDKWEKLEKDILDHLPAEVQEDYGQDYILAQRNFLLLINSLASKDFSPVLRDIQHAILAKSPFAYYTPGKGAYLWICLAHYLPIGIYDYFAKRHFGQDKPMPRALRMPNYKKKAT

[6] = target: T5, ADP298
T5 chain: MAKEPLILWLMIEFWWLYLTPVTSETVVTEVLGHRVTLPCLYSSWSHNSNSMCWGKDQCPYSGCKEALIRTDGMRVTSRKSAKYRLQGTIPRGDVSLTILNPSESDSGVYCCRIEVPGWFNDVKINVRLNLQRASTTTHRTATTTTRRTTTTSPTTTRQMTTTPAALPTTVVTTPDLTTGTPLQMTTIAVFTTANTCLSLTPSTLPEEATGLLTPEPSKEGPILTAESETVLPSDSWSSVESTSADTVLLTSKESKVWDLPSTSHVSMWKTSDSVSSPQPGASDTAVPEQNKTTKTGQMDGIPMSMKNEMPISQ

[7] = target: T6, ADP341
T6 chain: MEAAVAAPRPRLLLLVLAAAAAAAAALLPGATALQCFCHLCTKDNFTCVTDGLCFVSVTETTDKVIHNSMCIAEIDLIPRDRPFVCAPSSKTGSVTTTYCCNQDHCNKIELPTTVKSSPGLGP

[8] = target: ADP376

B1: ADP183 (protein)
chain: AEEHEITHKTYFDITIDDKPLGRIVFGLYGKVAPKTVENFVSICKGTVVDGKMLHYTNSIFHRIIPNFMAQGGDITNFNGAGGLSIYGKKFEDENFKVNHAKRGLLSMANAGKNTNGAQFFILFIPTPWLDGRHVVFGEVVEGLDKLVHIEAVGTDSGEPLKRVLVKESGELPL
modifications: bait human Fc-tagged dimer; N-glycosylation sequons mutated in Plasmodium baits
**Q.** B1 was tested. Which binding score [1] did it give?
**A.** 5.67

**Q.** What about the binding score [2] of the same binder?
**A.** 6.98

B2: ADP198 (protein)
chain: ENVDTFKCNYAKKKKNGHHIKRHITNDEEKKKEYSFLMLGKENEEENKENKENNQNVNKDNNDNNNNEKKNEEQNHNNEKKQEEVINNNNNNVENKKEEENHNNDKKTDEQNHVNEKKQEGENNKHKKDDTIPPEKKINKENLLEYGTHDKEGHFIPSYKTLTDEILSTNNAMEKASSFLKIACSHVMKLIEFIPESKLSSQYIKVDNKNIYLKDIAVECQNIYFNLEKFSMTLIVFNSKINKFIYSQEK
modifications: bait human Fc-tagged dimer; N-glycosylation sequons mutated in Plasmodium baits
**Q.** With B2 as the binder, how does the binding score [3] read?
**A.** 5.51

**Q.** What about the binding score [4] of the same binder?
**A.** 21.4

B3: ADP397 (protein)
chain: YLSSENQKKTIATVHNNARTNTLKKNNANNNNANDIFGLSPSEVPNLIDDEEEYEILEGVKNNADLTRSTNIDHPSPSSTMIDLDNIITEISKLKKKKLKKEMNNKLEQQTNQNNNAIHHNNENEINTFTQNIKTNSNELKNQDSSNSLISTNSNTMDELLLYSTNSEDNLDISFGELQLYENSDEDTSDYEYVNEDYSVNHIFSNDAEESFNILEDVENIALSSSNRYQYSPIGPYKKKHTKVFENFKMTRNYDEFLKLYNLKDSSDNQEEYYELLAGEPFKLNSYYYRDVKYENVKKYIFKEIYDNIQNIATENKIIVSKKEELFFYFIKSLLKNNFICLSYEEEENLLSESKLLLEAMISKKIQ
modifications: bait human Fc-tagged dimer; N-glycosylation sequons mutated in Plasmodium baits
**Q.** Which binding score [5] does the source give for B3 here?
**A.** 21.9

**Q.** What about the binding score [6] of the same binder?
**A.** 7.9

B4: ADP256 (peptide)
chain: MNEAKEEKTNMRNNHLSRVTIEILPSDEDNDIFDINDALLDELIGINNI
modifications: also: human Fc-tagged dimer
**Q.** B4 was tested. Which binding score [7] did it give?
**A.** 32.7

B5: ADP398 (protein)
chain: SNHIKSVNRCFIPFISEYIYKQKNRKNNIAYDSSNSHYNDKIIPCGNYNKQLKYKINFCRNLYFNNKNEYNRICSRNKLNFHNIQTDNTIYKPKKKYYEVGKVREKIKMYTLFKDDKINTLKCNEEESVTSETINKHDSSVKVKGRRKKNIASNENIMNPNNKAVSSINTNLADSSNNKNDNSLNSKKNDNTLNSKKNDNTLNSKKNDNTLNSKNNNNALNSKNNNNALNSKKSNNAYNDKHIDHIIPEGKNKINNNIDVKHNINNKLNEINEEPYEDTHNKEENSANKNDNDEKRKEENNNIARRYIKNDQMSYNNINTNSNEYDKNAATLDETYIGKTFEGYVYSVNKNAACIKLKNINKYGLLFKNKANLGDDIEDMNDFFEKDQPVHVKILGINTKKNIFYLGNIIKYNENIKLSKGEYSKGLITKVCDSYCFIKVLKNGATGYLHKSKLFCMNDKEKKNNDNQNYDNPNNDNPNYDNQNYDNQNYNNPNYDHPNYDNQNYDNQNYNNPNNDYSTSQLYNSDNLQMDFIYKLQFTKIFNIWDIIDVEILGTPQNDYKSNYILTIPRGSKTFKKILNYLNVLKENEDINNIQYKGDYIYSIDNNKNDNIIDSDINNHHINNKKKKKNLYDIQNNMNHAPFNKFHTEDEYLFNDHVQENVHTFYEKNKKYKITYDKENNHKMNKAYYLKKNKELPFNNKFKKIIKNIYDLPNTISLSMLSKTIKIPLASIKKYFIIHENKEYNSAYKINSEQIKRICQHFKIDCNVEQRDDNVVTKVNGATKDCQEKVFKNVAQDRLKEGEQERVIKVEAKIKNDEMVMQEQKDTKEEKHMDVQFIEEKDINVQHINVQDMDVQDMDVQDINVQDMDVQNINVQDINIQDMDVQNINNAITLNKATSCQTDESRDAPGGDQNEALDEKDSMEKSKEKKKKKGKSRKKNKDTNLALKSDSIQKSKTTLDDKKRNVVVTFIGHINHGKTSLFDYICKTNEQKKEYGLITQNIRAFKATVRNNFAFTLVDTPGHEAFMPMRSRGVKISDLSILVISGDEGIQEQTVECIKLIKEFNIKIIIAITKVDIPNVDVDRIINDLLYHDITTELNGGEIQVVECSIYKEESIDKLLDAIYLESEFLNLQTNPDKKHEQAQGVVLDSYIDKNGIVSINLLQNGVLNINDHFYTGSSYGKVKILKDHLNKNIKSAYPSDPIKIIGYNKNSVPVAGDKFYVVENEALAKEIAEHNKNKMLTMEINNFAYDQTNMNRYKDFIISRENKIGGSSGILGENNLKNDIDGNMARDDNMARDDNMASDDNMARDGNRANNDNIASDDNMANDYDKIKETKMYTNNKAFQKDDFLKIHLNNANENVINMDPSTHIGKNEIKTIYSNYIIKCDKQGSIEVLKNCMLKLQKEDSICKIKNKIIYADIGNVASSDIKYATSFNAAIIAFGVKLSNDIKGSKNSKGSKNHNNYPIIYSNVLYELIENVEKEMEKKLSKKPMGELKGTAQILKVFNIAKLGKVAGCIVKKGTISINSNIRILRNDKVIYMGKIISIKIVKEEKTQVTEADECGIGFDNFLDFEPNDIIEAYEN
modifications: bait human Fc-tagged dimer; N-glycosylation sequons mutated in Plasmodium baits
**Q.** With B5 as the binder, how does the binding score [8] read?
**A.** 10.1
